Tests used:
[1] = biological target: FimH variant 5 (recombinant dscFimH-His6) (E. coli | not stated) (UniProt P08191); test: SPR; BIAcore T200; FimH variant immobilised on CM5 chip (target amount 2,000 RU); GP2 isoforms as analytes at 0.5, 2.0, 6.0, 16 and 29 uM in PBS-P+; 25 C, 30 uL/min; association 3 min, dissociation 10 min; global 1:1 Langmuir fit
[2] = biological target: FimH variant 9 (recombinant dscFimH-His6) (E. coli | not stated) (UniProt P08191); test: as above

Substance | Kd [1] | koff [1] | kon [1] | Kd [2] | koff [2] | kon [2]
bovine GP2 isoform 1 (major zymogen granule membrane glycoprotein 2), recombinant secreted form (natural protein) | 179 nM | 9.65e-05 s⁻¹ | 538 M⁻¹ s⁻¹ | 340 nM | 0.000187 s⁻¹ | 551 M⁻¹ s⁻¹
bovine GP2 isoform 2 (major zymogen granule membrane glycoprotein 2), recombinant secreted form (natural protein) | 136 nM | 7.41e-05 s⁻¹ | 545 M⁻¹ s⁻¹ | 93.4 nM | 5.72e-05 s⁻¹ | 612 M⁻¹ s⁻¹
human GP2 isoform 2, recombinant (natural protein) | 97.8 nM | 0.000102 s⁻¹ | 1040 M⁻¹ s⁻¹ | 22.5 nM | 2.38e-05 s⁻¹ | 1060 M⁻¹ s⁻¹
human GP2 isoform 4, recombinant (natural protein) | 21.7 nM | 1.68e-05 s⁻¹ | 772 M⁻¹ s⁻¹ | 0.927 nM | 4.31e-07 s⁻¹ | 465 M⁻¹ s⁻¹
porcine GP2 isoform 1, recombinant (natural protein) | 22.6 nM | 1.71e-05 s⁻¹ | 758 M⁻¹ s⁻¹ | 158 nM | 8.44e-05 s⁻¹ | 535 M⁻¹ s⁻¹
porcine GP2 isoform 2, recombinant (natural protein) | 95.7 nM | 8.32e-05 s⁻¹ | 870 M⁻¹ s⁻¹ | 98.5 nM | 8.84e-05 s⁻¹ | 898 M⁻¹ s⁻¹

From article PMC8904060
